PMC5651819, “AtSPX1 affects the AtPHR1–DNA-binding equilibrium by binding monomeric AtPHR1 in solution” (Biochemical Journal, 2017)

Molecular target: T1, MBP–AtdPHR1 (DNA-binding domain and coiled-coil domain of AtPHR1 fused to maltose-binding protein) (Arabidopsis thaliana, UniProt Q94CL7 208-362)
T1 construct: cloned in pMAL-c2x via BamHI and HindIII; the methods print 208–362, and the predicted mass of 60 651 fits 208–362 with MBP; also called MBPdAtPHR1; MBPdPHR1; source: E. coli BL21-gold (DE3), purified (amylose resin, IEX on HiTrap Q-HP); not shown: MBP, N-terminal, kept
T1 sequence (Q94CL7 208-362): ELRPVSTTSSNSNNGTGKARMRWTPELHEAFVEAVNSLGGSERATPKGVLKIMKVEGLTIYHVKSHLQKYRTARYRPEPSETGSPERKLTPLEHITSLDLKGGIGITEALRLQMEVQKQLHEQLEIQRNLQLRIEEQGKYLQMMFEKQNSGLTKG
Experiment: pull-down; MBP–AtdPHR1 from cell lysate immobilised on amylose matrix and washed, incubated with affinity-purified GST–AtSPX1 for 2 h at 4°C, eluted with 10 mM maltose, anti-GST blot; buffer with Pi (PBS pH 7.4, 200 mM NaCl, 1 mM EDTA, 1 mM DTT), compared with buffer without Pi (20 mM Tris pH 7.5, 200 mM NaCl, 1 mM EDTA, 1 mM DTT)
Conditions: both partners purified

fold more in elution fraction E1 in the presence of phosphate than in its absence: 1.5 fold
fold more in elution fraction E2 in the presence of phosphate than in its absence: 3.5 fold
B1: GST–AtSPX1 (N-terminal GST-tagged full-length AtSPX1) (natural protein, Arabidopsis thaliana, UniProt Q8LBH4 1-256, looked up)
chain: MKFGKSLSNQIEQTLPEWQDKFLSYKELKKRLKLIGSKTADRPVKRLRLDEFSVGISKEEINFIQLLEDELEKFNNFFVEKEEEYIIRLKEFRDRIAKAKDSMEKMIKIRKEIVDFHGEMVLLENYSALNYTGLVKILKKYDKRTGDLMRLPFIQKVLQQPFYTTDLLFKLVKESEAMLDQIFPANETESEIIQAELSEHKFMESLHMKSTIAALRVLKEIRSGSSTVSVFSLPPLQLNGLDETWKKIPLLEQEAK
notes: AtSPX1, Arabidopsis thaliana, At5G20150.1, full-length cDNA in pGEX-2T via BamHI and EcoRI; also called GST–SPX1; not shown: GST, N-terminal, kept
